Measured values reported in publication PMC9282251 (Proceedings of the National Academy of Sciences of the …, 2022).

Biological target: the molecule itself
Assay: single-molecule photobleaching and fluorescence intensity analysis

B1: K401-clip labeled with Alexa-647 (domain or fragment)
chain: not shown
modifications: Alexa-647 label (labeling efficiencies of 15% monomer and 58% monomer in two preparations)
  stoichiometry N: 2
